Source: patent US20220017605A1 (ICAHN SCHOOL OF MEDICINE AT MOUNT SINAI, published 2022)
“And” between values parts separate entries of the source, which are not always exact repeats. Equal entries are not always repeated.

How the values were obtained:
[1] = molecular target: recombinant NS1 protein of Zika virus MR766 (Rhesus/1947/Uganda) with C-terminal hexahistidine tag (Zika virus MR766, UniProt Q32ZE1 791-1142)
[2] = molecular target: recombinant NS1 protein of Zika virus PRVABC59 (2015/Puerto Rico) with C-terminal hexahistidine tag (Example … (Zika virus PRVABC59, UniProt A0A024B7W1 795-1146))
Chain of recombinant NS1 protein of Zika virus PRVABC59 (2015/Puerto Rico) with C-terminal hexahistidine tag (Example … (A0A024B7W1 795-1146, tags left off): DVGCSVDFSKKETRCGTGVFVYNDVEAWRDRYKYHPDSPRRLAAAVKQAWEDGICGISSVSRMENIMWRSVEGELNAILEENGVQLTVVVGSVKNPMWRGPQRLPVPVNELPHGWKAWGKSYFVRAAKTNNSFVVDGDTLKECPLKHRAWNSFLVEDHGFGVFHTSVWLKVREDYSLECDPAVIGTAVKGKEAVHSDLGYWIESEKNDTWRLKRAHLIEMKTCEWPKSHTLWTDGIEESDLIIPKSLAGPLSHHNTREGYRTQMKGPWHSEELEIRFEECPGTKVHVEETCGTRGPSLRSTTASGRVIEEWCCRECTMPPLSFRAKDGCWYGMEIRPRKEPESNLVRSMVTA

Chain of recombinant NS1 protein of Zika virus MR766 (Rhesus/1947/Uganda) with C-terminal hexahistidine tag (Q32ZE1 791-1142, tags left off): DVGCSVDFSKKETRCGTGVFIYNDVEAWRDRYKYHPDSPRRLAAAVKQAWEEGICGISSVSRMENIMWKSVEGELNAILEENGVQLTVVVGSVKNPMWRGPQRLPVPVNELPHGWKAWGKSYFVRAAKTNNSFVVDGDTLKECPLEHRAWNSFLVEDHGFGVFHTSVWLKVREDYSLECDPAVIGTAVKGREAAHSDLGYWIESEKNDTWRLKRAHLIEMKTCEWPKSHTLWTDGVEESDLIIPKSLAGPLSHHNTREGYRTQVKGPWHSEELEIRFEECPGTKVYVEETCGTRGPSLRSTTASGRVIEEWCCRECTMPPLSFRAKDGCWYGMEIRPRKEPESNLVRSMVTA

B1: human monoclonal antibody AA12 (antibody, V domains shown)
VH: EVQLVESGGGLIQPGGSLRLSCAASGFTVSSNYMSWVRQAPGKGLEWVSVIYSGGSTYYADSVKGRFTISRDNSKNTLYLQMNSLRAEDTAVYYCARDRRGFDYWGQGTMVTVSS
VL: DIQMTQSPLSLSASVGDRVTITCRTSQSISSYLNWYQQKPGKAPKLLIYAASSLQSGVPSRFSGSGSGTDFTLTISSLQPEDFATYYCQQTYSTPLTFGGGTKVEIK
Kd [1]: 55.4 nM and 99.8 nM | Kd [2]: 147 nM and 76.1 nM
